According to publication doi:10.1101/2022.05.16.492129, “Cachd1 is a novel Frizzled- and LRP6-interacting protein required for neurons to acquire left-right asymmetric character” (bioRxiv, 2022):

B1: mouse FZD5 cysteine rich domain (FZD5CRD), biotinylated, for SPR (domain or fragment, UniProt Q9EQD0 27-157, looked up)
chain: ASKAPVCQEITVPMCRGIGYNLTHMPNQFNHDTQDEAGLEVHQFWPLVEIHCSPDLRFFLCSMYTPICLPDYHKPLPPCRSVCERAKAGCSPLMRQYGFAWPERMSCDRLPVLGGDAEVLCMDYNRSEATT
modifications: biotin
notes: mouse Fzd5 cysteine rich domain, residues A27-T157, synthesised (Genscript); also called mouse FZD5CRD; source: HEK293T, co-transfected with a BirA-ER plasmid
B2: human LRP6 P3E3P4E4 (membrane proximal fragment), biotinylated, for SPR (domain or fragment, UniProt O75581 629-1244, looked up)
chain: VPEAFLLFSRRADIRRISLETNNNNVAIPLTGVKEASALDFDVTDNRIYWTDISLKTISRAFMNGSALEHVVEFGLDYPEGMAVDWLGKNLYWADTGTNRIEVSKLDGQHRQVLVWKDLDSPRALALDPAEGFMYWTEWGGKPKIDRAAMDGSERTTLVPNVGRANGLTIDYAKRRLYWTDLDTNLIESSNMLGLNREVIADDLPHPFGLTQYQDYIYWTDWSRRSIERANKTSGQNRTIIQGHLDYVMDILVFHSSRQSGWNECASSNGHCSHLCLAVPVGGFVCGCPAHYSLNADNRTCSAPTTFLLFSQKSAINRMVIDEQQSPDIILPIHSLRNVRAIDYDPLDKQLYWIDSRQNMIRKAQEDGSQGFTVVVSSVPSQNLEIQPYDLSIDIYSRYIYWTCEATNVINVTRLDGRSVGVVLKGEQDRPRAVVVNPEKGYMYFTNLQERSPKIERAALDGTEREVLFFSGLSKPIALALDSRLGKLFWADSDLRRIESSDLSGANRIVLEDSNILQPVGLTVFENWLYWIDKQQQMIEKIDMTGREGRTKVQARIAQLSDIHAVKELNLQEYRQHPCAQDNGGCSHICLVKGDGTTRCSCPMHLVLLQDELSCG
modifications: biotin
notes: human LRP6 P3E3P4E4 domains, residues V629-G1244; also called 3-4; source: HEK293T, co-transfected with a BirA-ER plasmid
B3: human LRP6 P3E3P4E4, for crystallography (domain or fragment, UniProt O75581 629-1244, looked up)
chain: B2 chain
notes: human LRP6 P3E3P4E4 domains, residues V629-G1244
B4: human LRP6 P1E1P2E2 (membrane distal fragment), biotinylated, for SPR (domain or fragment, UniProt O75581 20-630, looked up)
chain: APLLLYANRRDLRLVDATNGKENATIVVGGLEDAAAVDFVFSHGLIYWSDVSEEAIKRTEFNKTESVQNVVVSGLLSPDGLACDWLGEKLYWTDSETNRIEVSNLDGSLRKVLFWQELDQPRAIALDPSSGFMYWTDWGEVPKIERAGMDGSSRFIIINSEIYWPNGLTLDYEEQKLYWADAKLNFIHKSNLDGTNRQAVVKGSLPHPFALTLFEDILYWTDWSTHSILACNKYTGEGLREIHSDIFSPMDIHAFSQQRQPNATNPCGIDNGGCSHLCLMSPVKPFYQCACPTGVKLLENGKTCKDGATELLLLARRTDLRRISLDTPDFTDIVLQLEDIRHAIAIDYDPVEGYIYWTDDEVRAIRRSFIDGSGSQFVVTAQIAHPDGIAVDWVARNLYWTDTGTDRIEVTRLNGTMRKILISEDLEEPRAIVLDPMVGYMYWTDWGEIPKIERAALDGSDRVVLVNTSLGWPNGLALDYDEGKIYWGDAKTDKIEVMNTDGTGRRVLVEDKIPHIFGFTLLGDYVYWTDWQRRSIERVHKRSAEREVIIDQLPDLMGLKATNVHRVIGSNPCAEENGGCSHLCLYRPQGLRCACPIGFELISDMKTCIVP
modifications: biotin
notes: human LRP6 P1E1P2E2 domains, residues A20-P630; source: HEK293T, co-transfected with a BirA-ER plasmid
B5: human FZD8 cysteine rich domain (FZD8CRD), biotinylated, for SPR (domain or fragment, UniProt Q9H461 28-158, looked up)
chain: ASAKELACQEITVPLCKGIGYNYTYMPNQFNHDTQDEAGLEVHQFWPLVEIQCSPDLKFFLCSMYTPICLEDYKKPLPPCRSVCERAKAGCAPLMRQYGFAWPDRMRCDRLPEQGNPDTLCMDYNRTDLTT
modifications: biotin
notes: human FZD8 CRD, residues A28-T158, synthesised (Genscript); also called human FZD8CRD; source: HEK293T, co-transfected with a BirA-ER plasmid
B6: mouse Cachd1 extracellular domain (CACHD1ECD) (domain or fragment)
chain: DADFSILDEAQVLASQMRRLAAEELGVVTMQRIFNSLVYTEKISNGESEVQQLAKKIREKFNRYLDVVNRNKQVVEASYTAHLTSPLTAIQDCCTIPPSMMEFDGNFNTNVSRTVSCDRLSTTVNSRAFNPGRDLNSVLADNLKSNPGIKWQYFSSEEGIFTVFPAHKFRCKGSYEHRSRPIYVSTVRPQSKHIVVILDHGASVTDTQLQIAKDAAQVILSAIDEHDKISVLTVADAVRTCSLDQCYKTYLSPATSETKRKMSTFVSSVKPSDSPTQHAVGFHRAFQLIRSTSNSTRFQANTDMVIIYLSAGITSKDSSEEDKKATLRVINEENGFLNNSVMILTYALMNDGVTGLKELAFLRDLAEQNSGKYGIPDRTALPVIKGSMMVLNQLSNLETTVGRFYTNLPNRMIDEAVFSLPFSDEMGDGLIMTVSKPCYFGNLLLGIVGVDVNLAYILEDVTYYQDSLASYTFLIDDKGYTLMHPSLTRPYLLSEPPLHTDIIHYENIPKFELVRQNILSLPLGSQIITVPVNSSLSWHINKLRETGKEAYNVSYAWKMVQDTSFILCIVVIQPEIPVKQLKNLNTVPSSKLLYHRLDLLGQPSACLHFKQLATLESPTVMLSAGSFSSPYEHLSQPETKRMVEHYTAYLSDNTRLIANPGLKFSVRNEVMATSHVTDEWMTQMEMSSLNTYIVRRYIATPNGVLRIYPGSLMDKAFDPTRRQWYLHAVANPGLISLTGPYLDVGGAGYVVTISHTIHSSSTQLSSGHTVAVMGIDFTLRYFYKVLMDLLPVCNQDGGNKIRCFIMEDRGYLVAHPTLVDPKGHAPLEQQHITHKEPLVANDILNHPNFVKKNLCNSFSDRTVQRSYKFNTSLVGDLTNLVHGSHCSKYRLTRIPGTNAFVGIVNETCDSLAFCACSMVDRLCLNCHRMEQNECECPCECPLEVNECTGNLTNAENRNPSCEVHQEPVTYTAIDPGLQDALQQCVNSRCNQRMESGDCFGVLDCEWCVVDSDGKTHLDKSYCAPQKECFGGIVGAKSPYVDDMGAIGDEVITLNMIKS
notes: mouse Cachd1 extracellular domain, residues D50-S1107, in pNeoSec; also called mouse CACHD1ECD; source: deglycosylated with EndoF1 before crystallisation

How the values were obtained:
Settings in all cases: both partners purified
[1] = target: B6; experiment: SPR; biotinylated FZD CRDs or LRP6 fragments immobilised (about 500-1,000 RU) on an SA sensor chip, CACHD1ECD as analyte at 100 μL/min; Biacore S200, 25 °C, 10 mM HEPES pH 7.5, 150 mM NaCl, 0.005% Tween 20; equilibrium response fitted to a one-site saturation binding model
[2] = target: B6; experiment: crystal structure; ternary complex: Cachd1ECD mixed with equal molar FZD5CRD and LRP6 P3E3P4E4; 0.1 M calcium acetate, 0.1 M sodium acetate pH 4.5, 10% (w/v) PEG 4000; 4.7 Å
[3] = target: human FZD7 cysteine rich domain (FZD7CRD), biotinylated, for SPR (human, UniProt O75084 33-170, biotin); experiment: SPR; biotinylated FZD CRDs or LRP6 fragments immobilised (about 500-1,000 RU) on an SA sensor chip, CACHD1ECD as analyte at 100 μL/min; Biacore S200, 25 °C, 10 mM HEPES pH 7.5, 150 mM NaCl, 0.005% Tween 20; equilibrium response fitted to a one-site saturation binding model

Kd [1] [nM] | Binder | other results
480 | B1 | 
170 | B2 | 
 | B3 | binding result [2]: binds
5860 | B4 | 
950 | B5 | 
 | B6 | Kd [3]: 14.2 µM
